The labels stand for the following.
B1: Pistol ribozyme (parent)
chain: GGGUCGUUGUUCCAUAAUCGCGUGGAUAUGGCACGCAAGUUUCUACCGGGCACCGUAAAUGUCCGACUGGAGCCGUUCGGGCGGCUAUAAACAGACCUCAGGCCCGAAGCGUGGCGGCACCUGCCGCCGGUGGUAAAAAAGAUCGGAAGAGCACACGUCU

Variants of B1 are the subject of this data set. Briefly: aptazyme ON/OFF ratio, guanine; higher = stronger switching; co-transcriptional cleavage with and without guanine.
For G9C U11A C12U C13G, the “aptazyme ON/OFF ratio” value stood at 1.17.

For the variant G9C U11A C12U C13U, the “aptazyme ON/OFF ratio” value is 1.34.

Take G9C U11A C12U C13A: the “aptazyme ON/OFF ratio” value stood at 1.27.

For the variant G9U U10C U11G C12U C13U, the “aptazyme ON/OFF ratio” value worked out at 1.41.

On to G9U U10C U11G C12U C13G, for which the “aptazyme ON/OFF ratio” value amounted to 1.34.

G9U U10C U11G C12U C13A: the “aptazyme ON/OFF ratio” value turned out to be 1.46.

G9U U11C: the “aptazyme ON/OFF ratio” value was 2.53.

For G9U U11A, the “aptazyme ON/OFF ratio” value came to 1.24.

G9U U11G: the “aptazyme ON/OFF ratio” value stood at 1.74.

As for G9U U10C C13G, the “aptazyme ON/OFF ratio” value was 1.13.

As for G9U U10C C13A, the “aptazyme ON/OFF ratio” value came out at 1.22.

Regarding G9U U10C C13U, the “aptazyme ON/OFF ratio” value is 1.72.

As for G9U U10C U11G C12A, the “aptazyme ON/OFF ratio” value worked out at 1.13.

Turning to G9U U10C U11G C12U, the “aptazyme ON/OFF ratio” value was determined as 2.12.

In the case of G9U U10C U11G C12G, the “aptazyme ON/OFF ratio” value is 1.2.

In the case of G9U U10C C12U C13U, the “aptazyme ON/OFF ratio” value was found to be 1.63.

Turning to G9U U10C C12U C13G, the “aptazyme ON/OFF ratio” value came out at 1.34.

On to G9U U10C C12U C13A, for which the “aptazyme ON/OFF ratio” value is 1.69.

With G9C U11G C13U, the “aptazyme ON/OFF ratio” value worked out at 1.31.

G9C U11G C13G: the “aptazyme ON/OFF ratio” value stood at 1.05.

As to G9C U11G C13A, the “aptazyme ON/OFF ratio” value worked out at 1.23.

Turning to G9C U10G U11C C13A, the “aptazyme ON/OFF ratio” value is 1.24.

Consider G9C U10G U11C C13U, for which the “aptazyme ON/OFF ratio” value came out at 1.06.

Consider G9C U10G U11C C13G, for which the “aptazyme ON/OFF ratio” value is 1.03.

On to G9C U11G C12A C13G, for which the “aptazyme ON/OFF ratio” value worked out at 1.03.

As to G9C U11G C12A C13U, the “aptazyme ON/OFF ratio” value turned out to be 1.13.

Regarding G9C U11G C12A C13A, the “aptazyme ON/OFF ratio” value was 1.14.

G9C U11A C13A: the “aptazyme ON/OFF ratio” value was found to be 1.19.

As for G9C U11A C13G, the “aptazyme ON/OFF ratio” value stood at 1.04.

For G9C U11A C13U, the “aptazyme ON/OFF ratio” value is 1.3.

Regarding G9U U10A C13A, the “aptazyme ON/OFF ratio” value worked out at 1.27.

As for G9U U10A C13G, the “aptazyme ON/OFF ratio” value is 1.27.

For the variant G9U U10A C13U, the “aptazyme ON/OFF ratio” value amounted to 1.54.

Take G9U: the “aptazyme ON/OFF ratio” value came to 4.29.

Take G9C U11G C12G C13G: the “aptazyme ON/OFF ratio” value amounted to 1.07.

On to G9C U11G C12G C13A, for which the “aptazyme ON/OFF ratio” value was found to be 1.24.

For the variant G9C U11G C12G C13U, the “aptazyme ON/OFF ratio” value was determined as 1.05.

G9U U10C U11C C12U C13A: the “aptazyme ON/OFF ratio” value worked out at 1.11.

As to G9U U10C U11C C12U C13U, the “aptazyme ON/OFF ratio” value came to 1.18.

G9U U10C U11C C12U C13G: the “aptazyme ON/OFF ratio” value is 1.09.

On to G9U U10G C13G, for which the “aptazyme ON/OFF ratio” value was determined as 1.29.

As for G9U U10G C13A, the “aptazyme ON/OFF ratio” value was determined as 1.52.

As to G9U U10G C13U, the “aptazyme ON/OFF ratio” value came out at 1.65.

Regarding G9U U10A U11G C12G C13U, the “aptazyme ON/OFF ratio” value is 1.14.

Regarding G9U U10A U11G C12G C13A, the “aptazyme ON/OFF ratio” value came out at 1.1.

Regarding G9U U10A U11G C12G C13G, the “aptazyme ON/OFF ratio” value stood at 1.11.

Take G9U U10A U11G C12A: the “aptazyme ON/OFF ratio” value worked out at 1.79.

With G9U U10A U11G C12U, the “aptazyme ON/OFF ratio” value is 1.27.

Regarding G9U U10A U11G C12G, the “aptazyme ON/OFF ratio” value was 2.12.

Take G9C U11C C12U C13U: the “aptazyme ON/OFF ratio” value was determined as 1.14.

Consider G9C U11C C12U C13A, for which the “aptazyme ON/OFF ratio” value was determined as 1.09.

As to G9C U11C C12U C13G, the “aptazyme ON/OFF ratio” value was 1.01.

Consider G9U U10C U11G C12A C13A, for which the “aptazyme ON/OFF ratio” value stood at 1.34.

As for G9U U10C U11G C12A C13U, the “aptazyme ON/OFF ratio” value was 1.08.

On to G9U U10C U11G C12A C13G, for which the “aptazyme ON/OFF ratio” value is 1.22.

Consider G9U U10C U11C, for which the “aptazyme ON/OFF ratio” value is 1.63.

In the case of G9U U10C U11A, the “aptazyme ON/OFF ratio” value came to 3.16.

For the variant G9U U10C U11G, the “aptazyme ON/OFF ratio” value amounted to 3.45.

On to G9U U10A U11A C12G C13U, for which the “aptazyme ON/OFF ratio” value came to 1.64.

As to G9U U10A U11A C12G C13A, the “aptazyme ON/OFF ratio” value is 0.999.

Consider G9U U10A U11A C12G C13G, for which the “aptazyme ON/OFF ratio” value stood at 1.51.

Take G9U U10G U11C C12U C13U: the “aptazyme ON/OFF ratio” value was determined as 1.18.

With G9U U10G U11C C12U C13A, the “aptazyme ON/OFF ratio” value came to 1.14.

As to G9U U10G U11C C12U C13G, the “aptazyme ON/OFF ratio” value was 1.17.

Turning to G9U U10G U11A C12A C13U, the “aptazyme ON/OFF ratio” value stood at 1.37.

Turning to G9U U10G U11A C12A C13A, the “aptazyme ON/OFF ratio” value turned out to be 1.56.

As to G9U U10G U11A C12A C13G, the “aptazyme ON/OFF ratio” value was determined as 1.7.

Take G9C U10G U11A C12G C13A: the “aptazyme ON/OFF ratio” value was found to be 1.11.

For the variant G9C U10G U11A C12G C13G, the “aptazyme ON/OFF ratio” value worked out at 1.24.

For G9C U10G U11A C12G C13U, the “aptazyme ON/OFF ratio” value came out at 1.07.

As for G9U C12G C13A, the “aptazyme ON/OFF ratio” value came to 1.52.

On to G9U C12G C13G, for which the “aptazyme ON/OFF ratio” value amounted to 1.27.

As to G9U C12G C13U, the “aptazyme ON/OFF ratio” value worked out at 1.43.

Consider G9U U10A C12A C13A, for which the “aptazyme ON/OFF ratio” value came out at 1.22.

As for G9U U10A C12A C13U, the “aptazyme ON/OFF ratio” value was determined as 1.09.

With G9U U10A C12A C13G, the “aptazyme ON/OFF ratio” value came to 0.84.

Turning to G9U U10A U11A C12G, the “aptazyme ON/OFF ratio” value came to 1.47.

Turning to G9U U10A U11A C12A, the “aptazyme ON/OFF ratio” value is 1.54.

Take G9U U10A U11A C12U: the “aptazyme ON/OFF ratio” value came out at 1.64.

With G9U U10G C12G C13A, the “aptazyme ON/OFF ratio” value is 1.44.

Consider G9U U10G C12G C13G, for which the “aptazyme ON/OFF ratio” value turned out to be 1.41.

As for G9U U10G C12G C13U, the “aptazyme ON/OFF ratio” value was 1.23.

With G9U U10G U11G C12G C13U, the “aptazyme ON/OFF ratio” value was determined as 1.27.
